In this assay the target is human Tie2 (on human Tie2-expressing cells) (human) (UniProt Q02763). Kind of assay: cell-based or functional assay.
Sequence of human Tie2 (on human Tie2-expressing cells) (human) (Q02763 23-1124): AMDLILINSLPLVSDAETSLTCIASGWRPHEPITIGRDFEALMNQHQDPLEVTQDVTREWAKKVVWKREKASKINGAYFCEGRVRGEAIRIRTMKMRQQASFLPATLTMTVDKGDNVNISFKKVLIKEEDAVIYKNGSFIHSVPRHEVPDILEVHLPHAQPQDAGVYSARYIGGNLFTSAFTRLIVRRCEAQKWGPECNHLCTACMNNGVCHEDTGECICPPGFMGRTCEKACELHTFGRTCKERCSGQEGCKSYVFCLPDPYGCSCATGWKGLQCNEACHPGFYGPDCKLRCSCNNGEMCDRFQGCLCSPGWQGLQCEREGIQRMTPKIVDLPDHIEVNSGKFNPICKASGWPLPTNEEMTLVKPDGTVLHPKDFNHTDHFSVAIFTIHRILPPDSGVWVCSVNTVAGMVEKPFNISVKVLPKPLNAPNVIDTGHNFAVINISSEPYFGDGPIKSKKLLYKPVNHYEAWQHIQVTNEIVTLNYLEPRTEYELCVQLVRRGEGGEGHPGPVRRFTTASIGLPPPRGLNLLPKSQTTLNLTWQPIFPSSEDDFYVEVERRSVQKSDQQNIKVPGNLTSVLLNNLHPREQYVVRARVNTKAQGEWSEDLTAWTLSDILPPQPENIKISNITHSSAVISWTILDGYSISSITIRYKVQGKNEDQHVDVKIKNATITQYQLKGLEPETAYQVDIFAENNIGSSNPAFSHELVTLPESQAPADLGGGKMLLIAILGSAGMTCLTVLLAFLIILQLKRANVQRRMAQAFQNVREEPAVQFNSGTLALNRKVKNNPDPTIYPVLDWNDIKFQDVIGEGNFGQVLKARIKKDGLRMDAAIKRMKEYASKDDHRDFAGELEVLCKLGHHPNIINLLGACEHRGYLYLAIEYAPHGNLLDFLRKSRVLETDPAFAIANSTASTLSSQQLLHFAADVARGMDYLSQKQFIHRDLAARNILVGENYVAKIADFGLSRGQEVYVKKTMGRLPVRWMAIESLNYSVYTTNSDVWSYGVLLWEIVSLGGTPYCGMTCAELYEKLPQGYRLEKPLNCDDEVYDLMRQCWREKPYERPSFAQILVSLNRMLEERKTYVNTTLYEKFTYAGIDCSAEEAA

Substance “Ang-2 (R&D, 623-AN-025) (from UniProt O15123 19-496) (ligand)” yielded an EC50 value of anti-apoptotic activity, human Tie2-expressing BaF3 cell of 0.0393 mg/L and a Maximum activity of anti-apoptotic activities (Ang-1 = 100%) of 67%.

The record behind these values is patent publication US20160222130A1.
